{
  "source": "patent US20240287172A1",
  "about": "(SCIRHOM, published 2024)",
  "key": {"[1]": {"molecular_target": "T1, hiR2-FL-H585A-T7 (human, UniProt Q6PJF5 1-856)", "T1 sequence": "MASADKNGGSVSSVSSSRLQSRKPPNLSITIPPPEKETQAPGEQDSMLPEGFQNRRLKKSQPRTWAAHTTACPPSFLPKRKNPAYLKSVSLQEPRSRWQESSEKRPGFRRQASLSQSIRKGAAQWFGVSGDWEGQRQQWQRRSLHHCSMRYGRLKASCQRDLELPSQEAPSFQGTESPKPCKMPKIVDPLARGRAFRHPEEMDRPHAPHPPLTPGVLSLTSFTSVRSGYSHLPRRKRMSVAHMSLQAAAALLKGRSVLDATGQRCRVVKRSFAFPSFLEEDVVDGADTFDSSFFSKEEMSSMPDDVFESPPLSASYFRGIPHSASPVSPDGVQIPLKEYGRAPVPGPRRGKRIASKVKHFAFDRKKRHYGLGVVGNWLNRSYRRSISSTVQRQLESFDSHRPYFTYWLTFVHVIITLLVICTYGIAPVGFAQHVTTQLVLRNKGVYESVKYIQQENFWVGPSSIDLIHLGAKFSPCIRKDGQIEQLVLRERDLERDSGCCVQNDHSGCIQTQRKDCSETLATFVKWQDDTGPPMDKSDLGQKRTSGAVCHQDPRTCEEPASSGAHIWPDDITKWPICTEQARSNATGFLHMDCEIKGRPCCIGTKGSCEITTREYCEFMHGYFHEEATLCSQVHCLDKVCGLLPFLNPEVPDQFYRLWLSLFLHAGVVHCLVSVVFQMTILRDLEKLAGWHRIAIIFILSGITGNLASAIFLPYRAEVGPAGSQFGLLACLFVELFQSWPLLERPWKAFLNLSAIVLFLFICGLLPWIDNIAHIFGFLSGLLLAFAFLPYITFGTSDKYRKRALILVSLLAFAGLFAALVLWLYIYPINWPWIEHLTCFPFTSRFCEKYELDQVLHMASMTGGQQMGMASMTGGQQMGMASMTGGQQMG", "test": "FACS on MEF-DKO cells expressing the variant, 3 µg/ml antibody", "procedure,_shortened": "(§1)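 Read-out is PE fluorescence by flow cytometry after two-step staining: antibody at 3 μg/ml for 1 hour on ice, then PE-labelled goat anti-mouse IgG F(ab′)2 (1:100) for 1 hour on ice.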"}, "[2]": {"molecular_target": "T2, hiR2-FL-P533A-T7 (human, UniProt Q6PJF5 1-856)", "T2 sequence": "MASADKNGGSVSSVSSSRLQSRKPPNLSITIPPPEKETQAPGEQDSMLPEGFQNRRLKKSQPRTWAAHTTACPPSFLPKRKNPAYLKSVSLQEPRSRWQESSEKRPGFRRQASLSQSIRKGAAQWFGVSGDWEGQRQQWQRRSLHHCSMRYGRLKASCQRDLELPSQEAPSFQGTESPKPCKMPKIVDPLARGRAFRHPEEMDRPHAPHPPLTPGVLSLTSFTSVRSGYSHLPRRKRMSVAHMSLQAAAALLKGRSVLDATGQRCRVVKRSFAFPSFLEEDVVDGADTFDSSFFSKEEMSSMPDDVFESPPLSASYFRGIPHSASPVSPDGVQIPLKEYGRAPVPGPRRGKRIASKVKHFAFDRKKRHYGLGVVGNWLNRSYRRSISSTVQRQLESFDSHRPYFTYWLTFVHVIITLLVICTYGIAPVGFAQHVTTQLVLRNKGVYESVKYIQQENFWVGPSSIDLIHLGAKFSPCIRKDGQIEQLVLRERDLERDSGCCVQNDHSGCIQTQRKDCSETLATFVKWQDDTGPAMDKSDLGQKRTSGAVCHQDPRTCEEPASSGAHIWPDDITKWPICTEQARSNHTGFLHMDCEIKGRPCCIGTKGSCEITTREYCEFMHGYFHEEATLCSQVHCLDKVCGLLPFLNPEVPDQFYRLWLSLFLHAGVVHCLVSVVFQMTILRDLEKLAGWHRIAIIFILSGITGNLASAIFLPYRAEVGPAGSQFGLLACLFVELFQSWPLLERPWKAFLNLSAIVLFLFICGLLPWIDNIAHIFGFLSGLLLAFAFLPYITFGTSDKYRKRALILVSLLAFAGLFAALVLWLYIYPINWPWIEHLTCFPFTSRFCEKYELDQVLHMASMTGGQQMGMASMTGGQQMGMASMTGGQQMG", "test": "FACS on MEF-DKO cells expressing the variant, 3 µg/ml antibody", "procedure,_shortened": "as §1"}},
  "data": [
    {"binder": "antibody 3 (antibody, V domains shown, mouse IgG, kappa light chain; also called clone #3; purified antibody 3) VH: QVTLKESGPGILQPSQTLSLTCSFSGFSLTTFAMGIGWVRQPSGKGLEWLAHIWWDGEKYNNPVLKSRLTISKDTSKNQVFLRIANVDTPDTATYYCARISSIYYIIDNWGQGTSVTVSS VL: DIVLTQSPATLSVTPGHSVSLSCRASQSISNNLHWYQKKSHESPRLLIKYVSQSISGIPSRFSGSGSGTDFTLSINSVETEDFGMYFCQQSYNWPLTFGAGTKLELK", "values": [
      {"measurement": "loss of binding vs wild type", "setting": "[1]", "result": "≥ 30", "unit": "%"}
    ]},
    {"binder": "antibody 34 (antibody, V domains shown, mouse IgG, kappa light chain; also called clone #34; purified antibody 34) VH: QVTLKESGPGILQPSQTLSLTCSFSGFSLSTFSLGVGWIRQSSGKGLEWLAHIWWDDEKYYNPALKSRLTISKDTSKNQVFLKIANVDAADTATYYCARAYYSKSYYALDYWGQGTSVTVSS VL: DIQMTQSPSSLSASLGERVSLTCRASQEISGYLSWLQQKPDGTIKRLIYAASTLDSGVPKRFSGSRSGSDYSLAISSLESEDFADYYCLQYANFPFTFGSGTKLEIK", "values": [
      {"measurement": "loss of binding vs wild type", "setting": "[2]", "result": "≥ 30", "unit": "%"}
    ]}
  ]
}
